Consider 1 substance from patent US12458703B2, “Responsive elastic polymers and methods of making and using same” (Purdue Research Foundation, priority 2016, dated 2025).

The series in a line: Intravital fluorescence imaging of BSA-AF release in the knee joint after intra-articular injection. The conditions noted are these: total radiant efficiency from knee joint, released from HA-g-PNIPAm hydrogels. The format is in vivo.

Regarding “Alexa Fluor 680 conjugated BSA: Alexa Fluor 680 conjugated BSA released from HA-g-PNIPAm hydrogels”, the “time detected in the knee joints” value was “more than 24 hours”. Also, for the setting “n=4”, the “time of maximum concentration post intra-articular injection” value was in the range of 6 to 12 h.
